Experimental findings from patent US12723078 (University of Texas, dated 2026) are described below.

The target in this assay is T1, human LILRB1 recombinant protein (human, UniProt Q8NHL6 24-461).
T1 construct: The ELISA method says only 'LILRB1 recombinant proteins' coated on plates; also called leukocyte immunoglobulin-like receptor subfamily B member 1
Kind of assay: ELISA, B cell supernatant. A general note: An ELISA detects its analyte on a solid surface through an enzyme-linked reagent.

T1 sequence (Q8NHL6 24-461 limits assumed): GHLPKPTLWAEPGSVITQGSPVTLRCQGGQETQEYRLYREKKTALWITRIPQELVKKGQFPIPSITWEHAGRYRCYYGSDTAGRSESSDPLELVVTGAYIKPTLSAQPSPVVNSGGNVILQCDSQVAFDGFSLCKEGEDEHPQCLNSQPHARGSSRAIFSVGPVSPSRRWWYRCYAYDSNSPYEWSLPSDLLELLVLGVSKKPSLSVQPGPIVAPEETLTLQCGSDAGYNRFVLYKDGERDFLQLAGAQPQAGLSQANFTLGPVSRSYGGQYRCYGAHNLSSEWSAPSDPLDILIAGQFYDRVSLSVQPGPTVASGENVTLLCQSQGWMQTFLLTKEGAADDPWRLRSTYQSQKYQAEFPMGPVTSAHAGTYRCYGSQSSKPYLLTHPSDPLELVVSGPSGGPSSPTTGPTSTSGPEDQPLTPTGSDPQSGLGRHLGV

B1: mAb of B cell clone 160 (supernatant) (antibody, V domains shown)
VH: QEQLVESGGGLVQPEGSLTLTCKASGIDFSSGYWICWVRQAPGKGLELIACIFTSSGTTYYASWAKGRFTISKTSSTTVTLQMTSLTAADTATYFCARDIYSYGMDLWGPGTLVTVSS
VL: ELDLTQTPASVSAAVGGTVTIKCQASQSISSSYLAWYQQKPGQPPKLLIYSASSTASGVPSRFKGSGSGTQFTLTISDLECADAATYYCQSTYISSSKYGAVFGGGTELEIK
notes: rabbit; also called B1-#160
Take B1: the OD450 worked out at 1.87 OD450.

B2: mAb of B cell clone 178 (supernatant) (antibody, V domains shown)
VH: QKQLVESGGGLVQPEGSLALTCTASGFSFSSSYWICWVRQAPGKGLEWIACIYAGSSGSTYYASWVNGRFTVFKTSSTTVTLQMTSLTAADTATYFCARGGTSYRLDLWGPGTLVTVSS
VL: ELVLTQTPSSKSVAVGDTVTINCQASDNVYSNNYTSWFQQKPGQPPKQLLYYAAYRASGVPSRFKGSGSGTEFTLSISDVVCDDAATYYCSGHKDYSDDGSTFGGGTEVEIK
notes: rabbit
Consider B2, for which the OD450 worked out at 1.81 OD450.

B3: mAb of B cell clone 185 (supernatant) (antibody, V domains shown)
VH: SQQLKESGGGLVKPGGTLTLTCKASGIDFNNDYNICWVRQPPGKGLEWIGCIYTGSDSTDYASWVNGRFTISESTSLNTVDLKVTSLTDADTATYFCARDLVTGYATYGYGFILWGPGTLVTVSS
VL: ELVLTQTPSSKSVAVGDTVTINCQASDNVYSNNYTSWFQQKPGQPPKQLLYYAAYRASGVPSRFKGSGSGTEFTLSISDVVCDDAATYYCSGHKDYSDDGSTFGGGTEVEIK
notes: rabbit
Regarding B3, the OD450 worked out at 1.67 OD450.

B4: mAb of B cell clone 204 (supernatant) (antibody, V domains shown)
VH: QSVKESGGGLVKPGGTLTLTCTASGFSFSSSYCMCWVRQAPGKGLELIACIYTDSSGATYYASWAKGRFTISKSSSTTITLQMTSLTAADTATYFCARGWDYEDPGYTDTTYFSLWGPGTLVTVSS
VL: ELDMTQTPSSVEAAVGGTVTIKCQASQTIYTNLAWYQQKPGQPPNLLIYAASTLASGVSSRFKGSGSGTEFTLTISDLECADAATYYCQSYYGSSTTGNGFGGGTEVEIN
notes: rabbit
For B4, the OD450 was determined as 2.03 OD450.

B5: mAb of B cell clone 227 (supernatant) (antibody, V domains shown)
VH: QSVKESGGGLVKPGGTLTLTCTASGFSFSSSYCMCWVRQAPGKGLELIACIYTDSSGATYYASWAKGRFTISKSSSTTITLQMTSLTAADTATYFCARGWDYEDPGYTDTTYFSLWGPGTLVTVSS
VL: ELDLTQTASPVSGAVGGTVTIKCQASQSIASDLAWYQQKPGQPPNLLIYAASTLASGVSSRFKGSGSGTEFTLTISDLECADAATYYCQSYYGSSTTGNGFGGGTEVVVK
notes: rabbit
Turning to B5, the OD450 is 2.08 OD450.

B6: mAb of B cell clone 176 (supernatant) (antibody, V domains shown)
VH: QSLEESEGGLVKPGGTLTLTCTASGFSFSSSYCMCWVRQAPGKGLELIACIYTDSSGATYYASWAKGRFTISKSSSTTITLQMTSLTAADTATYFCARGWDYEDPGYTDTTYFSLWGPGTLVTVSS
VL: ELDLTQTPSSVEAAVGGTVTIKCQASQTIYTNLAWYQQKPGQPPNLLIYAASTLASGVSSRFKGSGSGTEFTLTISDLECADAATYYCQSYYGSSTTGNGFGGGTEVEIK
notes: rabbit
For B6, the OD450 is 2.06 OD450.

B7: mAb of B cell clone 162 (supernatant) (antibody, V domains shown)
VH: QSVKESEGGLVQPGGSLTLSCKASGIDFSSAYMSWVRQAPGKGLEWIGKMRINDRSHYANWVNGRFTISNHNDQNTVELQLNSLTAADTATYFCARIATGTNVDDFWGPGTLVTISS
VL: ELVMTQTASPVSAAVGGTVTISCQSSQSVYSNNWLSWYQQKPGQPPKRLIYKASTLETGVPSRFKGSGSGKQFTLTISDLECDDAATYYCAGGYSGDLYAFGGGTEVVVK
notes: rabbit; also called B1-#162
In the case of B7, the OD450 was determined as 2.02 OD450.

B8: mAb of B cell clone 4 (supernatant) (antibody, V domains shown)
VH: RAVGKESGGGLVKPGASLTLTCKASGFDFSGIYWVCWVRQAPGKGLEWIACFDAERTGNTYYATWAKGRFTISRTSSTTVTLQMTSLTAADTATYFCARSYYMWGPGTLVTVSS
VL: ELVLTQTPSPVSAVVGGSVTINCQSSQSLYNANDLSWYQQKPGQPPKQLIYWASTLASGVPSRFKGSGSGTQFTLSISDVQCDDAATYYCLGEFSCSSFDCHVFGGGTEVVVK
notes: rabbit; also called B1-#4
In the case of B8, the OD450 worked out at 2.47 OD450.

B9: mAb of B cell clone 5 (supernatant) (antibody, V domains shown)
VH: EQSLEESGGDLVKPEGSLTLTCTASELSFSSAYYMCWVRQAPGKGLEWIGCIYSGDGDTYYANWAKGRFTISKTSSTTVTLQMTSLTDADTATYFCARALDSHYSSFDLWGPGTLVTISS
VL: ELDMTQTPSSVSAAVGDTVTIKCQASQSIYRYLAWYQQKPGQRPSLLIYYGSDLASGVPSRFSGSGSGTEFTLTISDLECADAASYYCQTTYDDYHNGWAFGGGTNVEIN
notes: rabbit; also called B1-#5
B9: the OD450 came to 2.27 OD450.

B10: mAb of B cell clone 175 (supernatant) (antibody, V domains shown)
VH: ESEGGLVKPGGTLTLTCKVSGIDFNSYKYYYMCWVRQAPGKGLEWIGCMSTASRNIYYASWAKGRFTISETSSTSVTLQMTTLTAADTATYFCAKSHGGDGGYGVVLWGPGTLVTISS
VL: ELVMTQTPSSVSAAVGDTLTINCQASETISNRLAWYQQKPGQPPKLLIYSASTLESGVPSRFRGSGSGTQFTLTISDLECADAATYYCQSIRSSSGVVHPNTFGGGTEVEIK
notes: rabbit
Regarding B10, the OD450 was 2.02 OD450.

B11: mAb of B cell clone 170 (supernatant) (antibody, V domains shown)
VH: QSVEESGGGLVKPGASLTLSCTASGFDFSSKYYMWWVRQAPGKGLEWIARIYGGSSDSTDYATWARGRFAISRTSSTTVTLRMTSLTAADTATYFCGRVIDGACGYDLWGPGTLVTVSS
VL: ELDLTQTPASVSAAVGGTVTISCQSSQSVHHSQTVHNNQWLAWYQQKPGQPPKLLIYDASKLASGVPSRFTGSGSGTQFSLTISAVQCDDAATYYCQGGYSYGDVYGFGGGTELEIK
notes: rabbit; also called B1-#170
On to B11, for which the OD450 was determined as 2.26 OD450.

B12: mAb of B cell clone 173 (supernatant) (antibody, V domains shown)
VH: QSVEESGGDLVKPGASLTLTCTASGFDFSSNAYLCWVRQAPGKGLEWIGCIYDGTSGDTYYANWAKGRFTISRSSSTTVTLQMTSLTAADTATYFCARDTRSSNYYFNLWGPGTLVTISS
VL: ELVLTQTPSSTSAAVGGTVTINCQASQSVDNNKQLSWYQQKPGQPPKQLIYSASKLASGVPSRFKGSGSGTQFTLTISDLECDDAATYYCAGYYYSGSATDAWAFGGATEVEIN
notes: rabbit
Regarding B12, the OD450 came to 2.14 OD450.

B13: mAb of B cell clone 190 (supernatant) (antibody, V domains shown)
VH: QEQLKESGGDLVKPEGSLTLTCTASGFSFSSDYWVCWVRQAPGKGPEWIGCIYTGDDDTYYASWAKGRFTISKTSSTTVTLEVTSLTAADTATYFCARGLTIGTAELYFWGPGTVVTVSS
VL: ELVLTQTPSPVSAAVGGTVTINCQASQSISNELSWYQQKPGQPPKLLIYLASTLDSGVPSRFKGSGSGTQFTLTISDLECADAATYYCQSHYYGGSSDYGWAFGGGTEVVVK
notes: rabbit; also called B1-#190
With B13, the OD450 came out at 1.9 OD450.

B14: mAb of B cell clone 167 (supernatant) (antibody, V domains shown)
VH: EQLMEESGGGLVQPEGSLTLTCTASRFSLSNMNVMCWVRQAPGKGLEWIGCINIGGTNIWYASWAKGRFTISKTSSTTVTLQMTSLTVADTATYFCARSYITDRIYDYDFWGPGTLVTISS
VL: ELDMTQTPSPVSAAVGGSVTISCQASQTIYNNKNLAWYQQKPGQPPKLLIYQASKLASGVSSRFSGSGSGTQFTLTISGVQCDDAATYYCQGEFSCSSGDCTTFGGGTEVVVK
notes: rabbit
As for B14, the OD450 amounted to 1.12 OD450.

B15: mAb of B cell clone 3 (supernatant) (antibody, V domains shown)
VH: QSLEESEGDLVKPEGSLTLTCKASGFDFSSDAMCWVRQAPGKGLEWIGCIYNGDEITDHASWAKGRFTISKTSPTTVTLQMTSLTVADTATYFCARAVYSDGGAGYPYMYGMDLWGPGTLVTVSS
VL: ELDMTQTPASVEAAVGGTVTIKCQASQNIYSYLVWYQQKPGQPPKLLISKASTLASGVSSRFKGSGSGTEFTLTINDLECADAATYYCQTNYFSSTSHFGVFTFGGGTELEIK
notes: rabbit; also called B1-#3
Turning to B15, the OD450 came out at 2.11 OD450.
